Assay [1] addresses T1, Nectin-like-3 (UniProt Q8N3J6 25-367, limits assumed).
T1 construct: Bought recombinant protein; also called CADM2; IgSF4D
T1 sequence (looked up): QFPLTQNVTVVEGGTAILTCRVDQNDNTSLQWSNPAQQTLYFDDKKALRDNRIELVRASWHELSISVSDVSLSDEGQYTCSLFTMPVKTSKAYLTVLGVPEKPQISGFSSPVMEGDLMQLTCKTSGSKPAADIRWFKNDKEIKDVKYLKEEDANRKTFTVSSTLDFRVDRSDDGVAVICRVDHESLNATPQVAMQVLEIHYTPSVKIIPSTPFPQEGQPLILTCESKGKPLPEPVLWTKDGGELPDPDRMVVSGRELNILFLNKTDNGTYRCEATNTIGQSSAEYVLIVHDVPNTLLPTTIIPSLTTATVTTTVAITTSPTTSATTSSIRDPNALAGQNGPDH
The assay can be described thus: ELISA, coated antigen. For orientation: In an ELISA, binding on a coated surface is turned into a signal by an enzyme label.

The target in assay [2] is T2, Nectin-2 (UniProt Q92692 32-360, limits assumed).
T2 construct: Bought recombinant protein; also called CD112; PVRL-2
T2 sequence (looked up): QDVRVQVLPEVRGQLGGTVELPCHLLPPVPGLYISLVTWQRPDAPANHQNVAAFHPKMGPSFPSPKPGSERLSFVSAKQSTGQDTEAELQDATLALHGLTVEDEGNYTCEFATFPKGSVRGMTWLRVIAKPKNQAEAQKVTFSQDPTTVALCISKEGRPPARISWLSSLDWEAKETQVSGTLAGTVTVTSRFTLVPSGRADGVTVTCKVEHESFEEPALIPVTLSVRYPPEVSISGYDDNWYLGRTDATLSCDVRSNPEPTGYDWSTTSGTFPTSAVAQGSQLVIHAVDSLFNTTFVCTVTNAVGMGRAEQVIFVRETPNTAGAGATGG
The assay can be described thus: ELISA, coated antigen.

Assay [3] deals with T1, Nectin-like-3. The assay can be described thus: ELISA, coated antigen, antibody at 10 ng/ml. As to the method:
(§1) Coating: Nectin-1, Nectin-2, Nectin-3, Nectin-4, Nectin-like-1, Nectin-like-2, Nectin-like-3, Nectin-like-4, and Nectin-like-5 were diluted to 5 μg/ml in coating buffer (carbonate buffer, pH 9.6) respectively. A 96-well plate was coat with 100 μl per well and incubated overnight at 2-8° C.;
(§2) Sample loading: The plate was taken out, patted dry, and washed twice with 200 μl/well of PBST, then patted dry. The Nectin-4 antibodies prepared in Example 1 (antibody MM11, antibody R012, and antibody R036) were diluted with 1% BSA/PBST to concentrations of 10 μg/ml, 1 μg/ml, 100 ng/ml, and 10 ng/ml, respectively. 1% BSA/PBST solution for dilution was set as a blank control. 100 μl per well was added to the 96-well plate, and incubated at room temperature for 2 hours;
(§3) Reaction termination and plate reading: 100 μl/well of 1 mol/L H3PO4 was added to terminate the reaction and the plated was read. The absorbances of wells in the plate at 450 nm with 650 nm as reference wavelength were read and recorded as OD_{450 nm-650 nm}.

The target of the next assay is T3, Nectin-like-4 (UniProt Q8NFZ8 21-324, limits assumed).
T3 construct: Bought recombinant protein; also called CADM4; IgSF4C
T3 sequence (looked up): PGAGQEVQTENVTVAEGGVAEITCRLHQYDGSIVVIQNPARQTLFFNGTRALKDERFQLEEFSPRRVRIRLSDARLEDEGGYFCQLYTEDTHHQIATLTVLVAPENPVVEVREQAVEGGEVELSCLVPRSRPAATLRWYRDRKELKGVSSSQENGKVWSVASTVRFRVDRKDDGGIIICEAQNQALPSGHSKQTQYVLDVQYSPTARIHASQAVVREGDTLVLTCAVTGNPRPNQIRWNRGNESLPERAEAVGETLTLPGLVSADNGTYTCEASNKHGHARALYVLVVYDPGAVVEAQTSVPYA
The assay can be described thus: ELISA, coated antigen, antibody at 10 ng/ml. The method, then:
as §1, §2, §3

The next assay has as its target T4, Nectin-like-5 (UniProt P15151 21-343).
T4 construct: Bought recombinant protein; also called CD155; PVR
T4 sequence (looked up): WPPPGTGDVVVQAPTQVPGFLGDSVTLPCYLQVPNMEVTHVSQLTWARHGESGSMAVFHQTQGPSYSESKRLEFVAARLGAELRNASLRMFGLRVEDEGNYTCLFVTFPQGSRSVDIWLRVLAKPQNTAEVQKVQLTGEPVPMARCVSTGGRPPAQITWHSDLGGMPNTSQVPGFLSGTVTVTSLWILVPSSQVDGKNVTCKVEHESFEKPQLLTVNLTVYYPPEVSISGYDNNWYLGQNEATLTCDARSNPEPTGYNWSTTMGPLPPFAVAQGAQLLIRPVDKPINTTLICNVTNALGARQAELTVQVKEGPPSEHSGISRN
The assay can be described thus: ELISA, coated antigen, antibody at 10 ng/ml. The method, then:
as §1, §2, §3

Assay [4] deals with T5, recombinant human Nectin-4 protein (human, UniProt Q96NY8 32-349).
T5 construct: Prepared in-house (Jiangsu Mabwell) by transient transfection of CHO cells; also called PVRL-4; PRR-4
T5 sequence: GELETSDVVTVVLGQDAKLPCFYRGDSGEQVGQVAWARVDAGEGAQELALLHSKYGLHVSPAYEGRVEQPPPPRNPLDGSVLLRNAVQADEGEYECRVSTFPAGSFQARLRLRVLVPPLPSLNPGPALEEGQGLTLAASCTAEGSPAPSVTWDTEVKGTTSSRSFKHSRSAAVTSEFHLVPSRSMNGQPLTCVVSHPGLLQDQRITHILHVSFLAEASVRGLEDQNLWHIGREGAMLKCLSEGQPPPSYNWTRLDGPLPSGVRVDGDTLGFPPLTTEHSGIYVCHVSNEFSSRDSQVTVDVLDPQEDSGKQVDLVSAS
The assay can be described thus: ELISA, coated antigen, antibody at 10 ng/ml. The method, then:
as §1, §2, §3

For another assay, the target named is T6, Nectin-1 (UniProt Q15223 31-334, limits assumed).
T6 construct: Bought recombinant protein; also called CD111; PVRL-1
T6 sequence (looked up): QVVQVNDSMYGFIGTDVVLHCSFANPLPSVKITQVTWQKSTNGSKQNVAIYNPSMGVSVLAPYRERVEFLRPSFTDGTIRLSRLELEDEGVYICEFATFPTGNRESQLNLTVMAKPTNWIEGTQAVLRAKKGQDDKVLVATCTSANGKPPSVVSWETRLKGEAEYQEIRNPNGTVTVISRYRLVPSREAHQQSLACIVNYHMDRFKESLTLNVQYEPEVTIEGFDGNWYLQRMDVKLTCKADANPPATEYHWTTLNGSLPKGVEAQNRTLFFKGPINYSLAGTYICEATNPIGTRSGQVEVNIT
The assay can be described thus: ELISA, coated antigen, antibody at 10 ng/ml. As to the method: as §1, §2, §3

Assay [5] deals with T2, Nectin-2. The assay can be described thus: ELISA, coated antigen, antibody at 10 ng/ml. As to the method:
as §1, §2, §3

Substitutions are numbered along the chain they refer to.

B1: Antibody R012 (antibody, V domains shown)
VH: SKSVEESGGRLVTPGTPLTLTCTVSGFSLSTYAMSWVRQAPGKGLEYIGIISGRGTTYYASWLKGRFTISKTSTTVDLKITSPTTEDTATYFCARDAGISDVYTGYFNLWGQGTLVTVSS
VL: QPVLAQLPSASAALGASAKLTCTLSSAHRTYTIAWYQQQQGEAPRYLMMLKSDGSYTKGTGVPDRFSGSSSGADRYLIISSVQAADEADYYCGADDSGGYVFGGGTQLTVTG
notes: Rabbit monoclonal antibody from phage display; also called Nectin-4 rabbit monoclonal antibody R012; rabbit antibody R012
Take B1: the binding result in the assay with Nectin-like-3 [1] and with Nectin-2 [2] was “no binding (tested: 10000 ng/ml)” in each case. The OD detection value with Nectin-like-3 [3] came out at 0.009 OD450 nm-650 nm; with Nectin-like-4, 0.008 OD450 nm-650 nm; with Nectin-like-5 it was 0.009 OD450 nm-650 nm; in assay [4], 0.748 OD450 nm-650 nm; with Nectin-1, 0.008 OD450 nm-650 nm; in the assay with Nectin-2 [5], 0.008 OD450 nm-650 nm.

B2: Antibody R036 (antibody, V domains shown)
VH: SQSVEESGGRLVTPGTPLTLTCTVSGFSLSSYAMSWVRQAPGKGLEYIGIIGGRGTTYYAIWAKGRFTISKTSTTVDLKITSPTTEDTATYFCARDAGTTYVGTTYVATGYFNLWGQGTLVTVSS
VL: B1 VL with A5T, L7P, R29K, M49I, K58R, A85D
notes: Rabbit monoclonal antibody from phage display; also called Nectin-4 rabbit monoclonal antibody R036; rabbit antibody R036
Take B2: the binding result with Nectin-like-3 [1] and with Nectin-2 [2] was “no binding (tested: 10000 ng/ml)” each time. Moreover, the OD detection value was 0.008 OD450 nm-650 nm with Nectin-like-3 [3]; 0.007 OD450 nm-650 nm with Nectin-like-4; 0.009 OD450 nm-650 nm with Nectin-like-5; 0.73 OD450 nm-650 nm in assay [4]; 0.007 OD450 nm-650 nm with Nectin-1; 0.007 OD450 nm-650 nm with Nectin-2 [5].

B3: Antibody MM11 (antibody, mouse IgG1, kappa, V domains shown)
VH: DVQLQESGPGLVKPSQSLSLTCSVTGYSITSNFYWNWIRQFPGNRLEWMGYISYDGSNNYNPSLKNRISISRDTSKNQFFLKLNSVTTEDTATYYCVRADYWGQGTLVTVSA
VL: DTVMTQTPLSLPVSLGDQASISCRSSQSLESSDGHAYLNWYLQKPGQSPQLLIYRVSNRFSGVLHRFSGSGSGTDFTLKISRVEAEDLGVYFCLQFTHVPFTFGSGTKLEIKR
notes: Mouse monoclonal antibody from hybridoma; also called Nectin-4 mouse monoclonal antibody MM11; mouse antibody MM11
On to B3, for which the binding result with Nectin-like-3 [1] and with Nectin-2 [2] was “no binding (tested: 10000 ng/ml)” in each case. Besides, the OD detection value with Nectin-like-3 [3] stood at 0.03 OD450 nm-650 nm; with Nectin-like-4 it was 0.004 OD450 nm-650 nm; with Nectin-like-5, 0.006 OD450 nm-650 nm; in assay [4], 0.58 OD450 nm-650 nm; in the assay with Nectin-1, 0.006 OD450 nm-650 nm; with Nectin-2 [5], 0.014 OD450 nm-650 nm.

(Values after US20260265354A1 (JIANGSU MABWELL HEALTH PHARMACEUTICAL R AND D, published 2026).)
